Measurements: article PMC10418629, “Functional Study of Amorpha fruticosa WRKY20 Gene in Response to Drought Stress”

Biological target: T1, GST-AfWRKY20 (Amorpha fruticosa, UniProt A0A8K1R274 1-585)
T1 sequence: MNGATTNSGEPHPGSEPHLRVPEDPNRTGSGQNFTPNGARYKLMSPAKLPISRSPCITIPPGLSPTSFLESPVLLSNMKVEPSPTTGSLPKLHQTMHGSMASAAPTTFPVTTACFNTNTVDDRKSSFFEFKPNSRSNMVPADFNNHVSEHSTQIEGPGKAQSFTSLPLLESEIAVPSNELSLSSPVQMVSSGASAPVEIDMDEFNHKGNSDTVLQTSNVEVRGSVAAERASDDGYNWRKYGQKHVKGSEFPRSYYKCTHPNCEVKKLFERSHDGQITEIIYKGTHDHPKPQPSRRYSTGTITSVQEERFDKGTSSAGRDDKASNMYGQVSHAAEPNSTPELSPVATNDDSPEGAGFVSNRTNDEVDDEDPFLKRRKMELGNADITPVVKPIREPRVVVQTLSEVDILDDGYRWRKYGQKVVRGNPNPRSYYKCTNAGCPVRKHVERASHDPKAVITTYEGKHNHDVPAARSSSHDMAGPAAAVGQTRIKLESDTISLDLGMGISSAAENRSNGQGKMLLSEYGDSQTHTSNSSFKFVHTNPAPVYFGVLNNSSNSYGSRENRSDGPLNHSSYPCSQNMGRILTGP
Experiment: EMSA; unlabeled Cold-Pr competitor weakened the shift; EMSA kit (Biyuntian/Beyotime) per instructions; buffer, salt, pH and temperature not stated
Conditions: protein: recombinant; tags: GST; blunt as designed; printed strands are not exact complements (F has GGAAC / GGGC, complement of R has GGAC / GGGGC; possible misprint)

B1: W-box probe (Biotin-Pr) (dsDNA)
DNA 1: GGAACTTGACCTTGACCTTAGGGCTGCAGGAATTCG
DNA 2: CGAATTCCTGCAGCCCCTAAGGTCAAGGTCAAGTCC
B1: binds.
